Results reported in publication PMC8020832.

B1: 2411a revertant of heavy chain Y33V/M34L (CDR H1) (antibody, V domains shown)
VH: QVQLVQSGAEMKKPGASVRVSCEASGYTFTDYYMHWMRQAPGQGIEWLGWIKPRYGAVNYAHKFQGRVSMTRDTSIDTAYLELINLRSDDTAIYYCARSFDSDYEWWFTYWGQGTLVSVSA
VL: EIVLTQSPGTLSLSPGERATLSCRASYFISRDYLAWYQQRPGQAPKLLIYGTTTRASGIPDRFSGSGSGTDFTLTISRLEPEDFAVYYCQQYEFFGLGTKVEIK
B2: 2411a revertant of heavy chain N52K (CDR H2) (antibody, V domains shown)
VH: QVQLVQSGAEMKKPGASVRVSCEASGYTFTDYVLHWMRQAPGQGIEWLGWINPRYGAVNYAHKFQGRVSMTRDTSIDTAYLELINLRSDDTAIYYCARSFDSDYEWWFTYWGQGTLVSVSA
VL: EIVLTQSPGTLSLSPGERATLSCRASYFISRDYLAWYQQRPGQAPKLLIYGTTTRASGIPDRFSGSGSGTDFTLTISRLEPEDFAVYYCQQYEFFGLGTKVEIK
B3: 2411a revertant of heavy chain N53R/S54Y (CDR H2) (antibody, V domains shown)
VH: QVQLVQSGAEMKKPGASVRVSCEASGYTFTDYVLHWMRQAPGQGIEWLGWIKPNSGAVNYAHKFQGRVSMTRDTSIDTAYLELINLRSDDTAIYYCARSFDSDYEWWFTYWGQGTLVSVSA
VL: EIVLTQSPGTLSLSPGERATLSCRASYFISRDYLAWYQQRPGQAPKLLIYGTTTRASGIPDRFSGSGSGTDFTLTISRLEPEDFAVYYCQQYEFFGLGTKVEIK
B4: 2411a revertant of heavy chain G56A/T57V (CDR H2) (antibody, V domains shown)
VH: QVQLVQSGAEMKKPGASVRVSCEASGYTFTDYVLHWMRQAPGQGIEWLGWIKPRYGGTNYAHKFQGRVSMTRDTSIDTAYLELINLRSDDTAIYYCARSFDSDYEWWFTYWGQGTLVSVSA
VL: EIVLTQSPGTLSLSPGERATLSCRASYFISRDYLAWYQQRPGQAPKLLIYGTTTRASGIPDRFSGSGSGTDFTLTISRLEPEDFAVYYCQQYEFFGLGTKVEIK
B5: 2411a revertant of heavy chain Q61H (CDR H2) (antibody, V domains shown)
VH: QVQLVQSGAEMKKPGASVRVSCEASGYTFTDYVLHWMRQAPGQGIEWLGWIKPRYGAVNYAQKFQGRVSMTRDTSIDTAYLELINLRSDDTAIYYCARSFDSDYEWWFTYWGQGTLVSVSA
VL: EIVLTQSPGTLSLSPGERATLSCRASYFISRDYLAWYQQRPGQAPKLLIYGTTTRASGIPDRFSGSGSGTDFTLTISRLEPEDFAVYYCQQYEFFGLGTKVEIK
B6: 2411a revertant of light chain Q27Y (CDR L1) (antibody, V domains shown)
VH: QVQLVQSGAEMKKPGASVRVSCEASGYTFTDYVLHWMRQAPGQGIEWLGWIKPRYGAVNYAHKFQGRVSMTRDTSIDTAYLELINLRSDDTAIYYCARSFDSDYEWWFTYWGQGTLVSVSA
VL: EIVLTQSPGTLSLSPGERATLSCRASQFISRDYLAWYQQRPGQAPKLLIYGTTTRASGIPDRFSGSGSGTDFTLTISRLEPEDFAVYYCQQYEFFGLGTKVEIK
B7: 2411a revertant of light chain S27aF (CDR L1) (antibody, V domains shown)
VH: QVQLVQSGAEMKKPGASVRVSCEASGYTFTDYVLHWMRQAPGQGIEWLGWIKPRYGAVNYAHKFQGRVSMTRDTSIDTAYLELINLRSDDTAIYYCARSFDSDYEWWFTYWGQGTLVSVSA
VL: EIVLTQSPGTLSLSPGERATLSCRASYSISRDYLAWYQQRPGQAPKLLIYGTTTRASGIPDRFSGSGSGTDFTLTISRLEPEDFAVYYCQQYEFFGLGTKVEIK

Target: 18 Env antigens
Assay: ELISA

Binder | mean fold change in ELISA binding titer (OD450) versus parental 2411a
B1 | 3.9 fold
B2 | 5.4 fold
B3 | 6.5 fold
B4 | 5.5 fold
B5 | 1.4 fold
B6 | 1.8 fold
B7 | 1.6 fold
